The supplement of paper PMC10126150
± gives the standard deviation of the averaged measurements.

Tested on: ATP
Assay: switch fluorescence ratio, 500 uM ATP over buffer (Cy3 cluster intensity, sum of 5 cycles each) (fold (ratio)); higher = stronger signal-on switching upon ATP binding; sequences stand for … in TCGTCGGCAGCGTCAGATGTGTATAAGAGACAGTTTTTTTTTTTTTTTTTTTTTTTTT…TC
Details: aptamer strand: ATP DNA aptamer (quencher-CACCTGGGGGAGTATTGCGGAGGAAGG + anchor), 100 nM annealed; ATP concentration: 500 uM
How it was run: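 Per cluster, summed Cy3 intensity from the target cycles was divided by that from the buffer cycles to give the fluorescence ratio, then averaged per switch-domain sequence. Clusters outside 100-1000 RFU were excluded. The Cy3-labelled switching-strand clusters, on a modified Illumina MiSeq flow-cell, were annealed to 100 nM quencher-labelled ATP aptamer and imaged in selection buffer, then after 15 min with 500 uM ATP at 22 °C, for five cycles with NaOH stripping and re-annealing between them.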
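Also: ATP exposure 15 min at 22 °C before imaging.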

Sequence	switch fluorescence ratio
AGCTGATTTT	0.982 ± 0.033
AGCTGGAACA	1 ± 0.018
AGCTGGAATA	1 ± 0.06
AGCTGGGGGG	0.982 ± 0.044
AGCTGGGGTC	0.9851 ± 0.0063
AGCTGGGTTT	1 ± 0.021
AGCTGTCTCA	0.991 ± 0.017
AGCTGTGATG	1.01 ± 0.058
AGCTGTGTGT	1.012 ± 0.0047
AGCTGTTTCA	0.973 ± 0.02
AGCTTTATTA	0.9984 ± 0.0032
AGGAAAAACT	1.02 ± 0.047
AGGAAAGGGC	0.983 ± 0.034
AGGAACGCGC	1.02 ± 0.027
AGGAAGGGT	0.9978 ± 0.0079
AGGAAGGTCG	0.969 ± 0.013
AGGAAGGTTT	0.993 ± 0.041
AGGAATATTT	1.04 ± 0.095
AGGAATGAGG	0.958 ± 0.011
AGGAATTCCG	0.992 ± 0.054
AGGAATTTAG	1.02 ± 0.03
AGGACAGATA	1.01 ± 0.017
AGGACGCGAC	1.548 ± 0.014
AGGACGCTGG	0.9449 ± 0.0088
AGGACGGCAG	0.964 ± 0.13

Sequence	switch fluorescence ratio
AGGACTCTCA	1.01 ± 0.032
AGGACTTTCT	1.036 ± 0.0013
AGGAGAAGAC	1.03 ± 0.049
AGGAGACTTA	0.9877 ± 0.0047
AGGAGATGTA	1.029 ± 0.0061
AGGAGCAAGG	1.26 ± 0.072
AGGAGCCTTT	0.9927 ± 0.0011
AGGAGCTCTT	0.998 ± 0.0056
AGGAGGGGAG	1.024 ± 0.0053
AGGAGGGGTT	1.01 ± 0.037
AGGAGGTATT	0.99 ± 0.026
AGGAGGTTTG	0.97 ± 0.015
AGGAGTGCTG	0.995 ± 0.052
AGGAGTTGGA	0.987 ± 0.013
AGGAGTTGGG	0.97 ± 0.046
AGGAGTTTGC	1.068 ± 0.0073
AGGATAAGCT	1.1 ± 0.17
AGGATAGATA	1 ± 0.012
AGGATAGCAA	1.3 ± 0.023
AGGATAGGAG	0.9957 ± 0.0014
AGGATAGGGG	0.991 ± 0.026
AGGATATTGG	1.01 ± 0.02
AGGATCATGG	1.01 ± 0.021
AGGATCCTCG	0.992 ± 0.018
AGGATCGATG	1 ± 0.05

Sequence	switch fluorescence ratio
AGGATCGGGG	1.01 ± 0.013
AGGATCTACT	1.01 ± 0.021
AGGATGAGGT	0.978 ± 0.057
AGGATGGAGT	0.987 ± 0.031
AGGATGGGGT	0.966 ± 0.017
AGGATGTTGG	0.993 ± 0.026
AGGATTAAGG	0.992 ± 0.018
AGGATTAGGA	1.01 ± 0.062
AGGATTGTGT	0.9523 ± 0.0032
AGGATTTAAG	1.05 ± 0.022
AGGATTTCGT	1.008 ± 0.0068
AGGCAGACTT	1.004 ± 0.0089
AGGCAGGACT	1.02 ± 0.044
AGGCAGTCCA	1.003 ± 0.0065
AGGCCACCTT	1.04 ± 0.023
AGGCCCATGT	1.02 ± 0.012
AGGCCCCCCA	1.328 ± 0.013
AGGCCCGTTT	1.02 ± 0.029
AGGCCCTAAG	1.01 ± 0.017
AGGCCGGCTG	0.96 ± 0.066
AGGCCTCAGG	0.99 ± 0.022
AGGCGGACTG	1.02 ± 0.13
AGGCGGATGT	0.978 ± 0.016
AGGCGGGCAG	1.039 ± 0.004
AGGCGGGCGG	0.959 ± 0.019

Sequence	switch fluorescence ratio
AGGCGTTTAG	1.03 ± 0.059
AGGCTACATA	1.03 ± 0.019
AGGCTACCGT	1.0254 ± 0.001
AGGCTAGGAG	0.994 ± 0.053
AGGCTCCTCT	1.02 ± 0.025
AGGCTCGGGG	1.04 ± 0.026
AGGCTCTAAG	1.01 ± 0.011
AGGCTCTTAT	1.03 ± 0.049
AGGCTGCATG	1.01 ± 0.021
AGGCTGTTTT	1.02 ± 0.016
AGGCTTAGGG	1.03 ± 0.022
AGGCTTATAT	1.01 ± 0.024
AGGCTTATTT	1 ± 0.023
AGGCTTGTTT	0.996 ± 0.015
AGGGAAAAGA	1.03 ± 0.031
AGGGAAATCG	0.979 ± 0.037
AGGGAAGTTG	1.01 ± 0.07
AGGGAGGTTT	0.944 ± 0.073
AGGGAGTATG	1.01 ± 0.023
AGGGAGTGGG	0.968 ± 0.027
AGGGAGTTTT	1.01 ± 0.026
AGGGATAAAA	1.02 ± 0.055
AGGGATAAGC	0.988 ± 0.021
AGGGATAATT	0.975 ± 0.027
AGGGATAGTT	0.992 ± 0.0047
